Results published in the Immune Epitope Database (IEDB).

Legend:
HLA-B*08:01 = assay: IEDB peptide-MHC binding, purified MHC/competitive/radioactivity; filed as Kd, often an IC50 or EC50 that approximates it; ≥ and ≤ were set here for values at or beyond the usual limits of such assays
HLA-A*01:01 [1] = assay: as above
HLA-A*23:01 = assay: as above
HLA-A*24:02 = assay: as above
HLA-A*26:01 = assay: as above
HLA-A*29:02 = assay: as above
HLA-A*30:02 = assay: as above
HLA-B*44:02 = assay: as above
HLA-B*44:03 = assay: as above
HLA-B*40:01 = assay: as above
HLA-A*01:01 [2] = assay: IEDB peptide-MHC binding, purified MHC/direct/fluorescence; filed as Kd, often an IC50 or EC50 that approximates it; ≥ and ≤ were set here for values at or beyond the usual limits of such assays; conditions: source organism: SARS-CoV1
HLA-A*11:01 = assay: as above; conditions: source organism: SARS-CoV1
HLA-B*15:01 = assay: as above; conditions: source organism: SARS-CoV1
HLA-B*58:01 = assay: as above; conditions: source organism: SARS-CoV1
HLA-A*02:03 = assay: IEDB peptide-MHC binding, purified MHC/competitive/radioactivity; filed as Kd, often an IC50 or EC50 that approximates it; ≥ and ≤ were set here for values at or beyond the usual limits of such assays; conditions: source organism: Dengue virus 4 Philippines/H241/1956
HLA-B*53:01 = assay: as above; conditions: source organism: Dengue virus 3 Martinique/1243/1999
[3] = source organism: Dengue virus 1 Brazil/97-11/1997
[4] = source organism: Vaccinia virus WR
[5] = source organism: Dengue virus 4 Philippines/H241/1956
[6] = source organism: SARS coronavirus Tor2
[7] = source organism: Dengue virus 2 Jamaica/1409/1983
[8] = source organism: Dengue virus 2 16681-PDK53
[9] = source organism: Mammarenavirus guanaritoense
[10] = source organism: Mammarenavirus juninense
[11] = source organism: Mammarenavirus brazilense

LKDGPERVIL
Kd (HLA-B*08:01; [3]): 2540 nM

LLRKHTLKI
Kd (HLA-B*08:01; [4]): 20.8 nM

LNGRKRSTI
Kd (HLA-B*08:01; source organism: Dengue virus 4 Dominica/814669/1981): 135 nM

LNGRKRSTM
Kd (HLA-B*08:01; [5]): 100 nM

MFLARAIVF
Kd (HLA-A*01:01 [1]; [6]): ≥ 78.1 µM
Kd (HLA-A*23:01; [6]): 19.4 µM
Kd (HLA-A*24:02; [6]): ≥ 77.6 µM
Kd (HLA-A*26:01; [6]): ≥ 34.1 µM
Kd (HLA-A*29:02; [6]): 8470 nM
Kd (HLA-A*30:02; [6]): 16600 nM

NEAIMAVGM
Kd (HLA-B*44:02; [7]): 84.5 nM
Kd (HLA-B*44:03; [7]): 224 nM

NKAWLVHRQW
Kd (HLA-B*44:02; [8]): 1160 nM
Kd (HLA-B*44:03; [8]): 4090 nM

REAVEDSRFW
Kd (HLA-B*44:02; [7]): 78.7 nM
Kd (HLA-B*44:03; [7]): 127 nM

RLSFKELLVY
Kd (HLA-A*01:01 [1]; [6]): 0.239 µM
Kd (HLA-A*23:01; [6]): 14.7 µM
Kd (HLA-A*24:02; [6]): 15.7 µM
Kd (HLA-A*26:01; [6]): 10.1 µM
Kd (HLA-A*29:02; [6]): 86.2 nM
Kd (HLA-A*30:02; [6]): 226 nM

SAKTKISVE
Kd (HLA-B*08:01; [4]): 238 nM

SASKSASVY
Kd (HLA-A*01:01 [1]; [6]): ≥ 24.7 µM
Kd (HLA-A*23:01; [6]): ≥ 77.8 µM
Kd (HLA-A*24:02; [6]): ≥ 77.6 µM
Kd (HLA-A*26:01; [6]): ≥ 20.8 µM
Kd (HLA-A*29:02; [6]): 4990 nM
Kd (HLA-A*30:02; [6]): 385 nM

SENEVKLTIM
Kd (HLA-B*40:01; [7]): 974 nM
Kd (HLA-B*44:02; [7]): 23.7 nM
Kd (HLA-B*44:03; [7]): 377 nM

SEVCDHRLM
Kd (HLA-B*40:01; [5]): 303 nM
Kd (HLA-B*44:02; [5]): 26 nM
Kd (HLA-B*44:03; [5]): 76.1 nM

SKRMRVDII
Kd (HLA-B*08:01; [4]): 8230 nM

SLEFIRRSL
Kd (HLA-B*08:01; [4]): 1230 nM

SMAMRCVGI
Kd (HLA-B*08:01; [3]): 5.95 nM

SMKSVQNNTV
Kd (HLA-A*01:01 [1]; [9]): ≥ 70.4 µM
Kd (HLA-A*23:01; [9]): ≥ 70 µM
Kd (HLA-A*24:02; [9]): ≥ 70.3 µM
Kd (HLA-A*26:01; [9]): ≥ 69.7 µM
Kd (HLA-A*29:02; [9]): ≥ 53100 nM
Kd (HLA-A*30:02; [9]): 2980 nM

SQILLMRTTW
Kd (HLA-B*44:02; [3]): 359 nM
Kd (HLA-B*44:03; [3]): 327 nM

SRSTSLSVSL
Kd (HLA-B*08:01; [7]): 558 nM

SSLPSYAAY
Kd (HLA-A*01:01 [2]): 1620 nM
Kd (HLA-A*11:01): 390 nM
Kd (HLA-B*15:01): 52.6 nM
Kd (HLA-B*58:01): 286 nM
Kd (HLA-A*23:01; [6]): ≥ 77.8 µM
Kd (HLA-A*24:02; [6]): ≥ 77.6 µM
Kd (HLA-A*26:01; [6]): 5.04 µM
Kd (HLA-A*29:02; [6]): 1.49 nM
Kd (HLA-A*30:02; [6]): 0.27 nM

TEETFKLSY
Kd (HLA-A*01:01 [1]; [6]): 7.91 µM
Kd (HLA-A*23:01; [6]): ≥ 62.8 µM
Kd (HLA-A*24:02; [6]): ≥ 30.2 µM
Kd (HLA-A*26:01; [6]): 15.3 µM
Kd (HLA-A*29:02; [6]): 141 nM
Kd (HLA-A*30:02; [6]): 3600 nM

VDSSQGSEY
Kd (HLA-A*01:01 [1]; [6]): 0.892 µM
Kd (HLA-A*23:01; [6]): ≥ 77.8 µM
Kd (HLA-A*24:02; [6]): ≥ 77.6 µM
Kd (HLA-A*26:01; [6]): ≥ 24.4 µM
Kd (HLA-A*29:02; [6]): 1050 nM
Kd (HLA-A*30:02; [6]): 1980 nM

VGEEFFHQY
Kd (HLA-A*01:01 [1]; [10]): 3.34 µM
Kd (HLA-A*23:01; [10]): 0.251 µM
Kd (HLA-A*24:02; [10]): 1.62 µM
Kd (HLA-A*26:01; [10]): ≥ 77.9 µM
Kd (HLA-A*29:02; [10]): 2380 nM
Kd (HLA-A*30:02; [10]): 6.74 nM

VGRQEKGKSL
Kd (HLA-B*08:01; [7]): 3150 nM

VIEGPTTCGY
Kd (HLA-A*01:01 [1]; [6]): 0.109 µM
Kd (HLA-A*23:01; [6]): ≥ 38.1 µM
Kd (HLA-A*24:02; [6]): 17 µM
Kd (HLA-A*26:01; [6]): 0.907 µM
Kd (HLA-A*29:02; [6]): 152 nM
Kd (HLA-A*30:02; [6]): 26.2 nM

VNKFKFGAA
Kd (HLA-B*08:01; [4]): 158 nM

VYRGTTTYKL
Kd (HLA-A*01:01 [1]; [6]): 3.91 µM
Kd (HLA-A*23:01; [6]): 0.101 µM
Kd (HLA-A*24:02; [6]): 0.136 µM
Kd (HLA-A*26:01; [6]): 1 µM
Kd (HLA-A*29:02; [6]): 216 nM
Kd (HLA-A*30:02; [6]): 6880 nM

WIMKIGIGVL
Kd (HLA-B*08:01; source organism: Dengue virus 3 Singapore/8120/1995): 287 nM

WLSYKVASA
Kd (HLA-A*02:03): 12.3 nM
Kd (HLA-B*08:01; [5]): 7.42 nM

YCNYTKFWY
Kd (HLA-A*01:01 [1]; [10]): 18.5 µM
Kd (HLA-A*23:01; [10]): ≥ 22.2 µM
Kd (HLA-A*24:02; [10]): ≥ 77.5 µM
Kd (HLA-A*26:01; [10]): ≥ 77.9 µM
Kd (HLA-A*29:02; [10]): 2000 nM
Kd (HLA-A*30:02; [10]): 674 nM

YFMKFRRVF
Kd (HLA-A*01:01 [1]; [6]): ≥ 78.1 µM
Kd (HLA-A*23:01; [6]): ≥ 26.9 µM
Kd (HLA-A*24:02; [6]): ≥ 77.6 µM
Kd (HLA-A*26:01; [6]): ≥ 49.3 µM
Kd (HLA-A*29:02; [6]): 12700 nM
Kd (HLA-A*30:02; [6]): ≥ 22100 nM

YQPDTGNYIL
Kd (HLA-A*23:01; [11]): 1.72 µM
Kd (HLA-A*24:02; [11]): 6 µM
Kd (HLA-A*29:02; [11]): 5520 nM

YSIPATLLVW
Kd (HLA-A*23:01; source organism: Dengue virus 3 Martinique/1243/1999): 0.0704 µM
Kd (HLA-B*53:01): 59.7 nM
